T1: PNPase (Escherichia coli, UniProt P05055)
T1 construct: made in house; host or cells: E. coli Evo21(DE3)
T1 sequence (P05055 whole entry, looked up): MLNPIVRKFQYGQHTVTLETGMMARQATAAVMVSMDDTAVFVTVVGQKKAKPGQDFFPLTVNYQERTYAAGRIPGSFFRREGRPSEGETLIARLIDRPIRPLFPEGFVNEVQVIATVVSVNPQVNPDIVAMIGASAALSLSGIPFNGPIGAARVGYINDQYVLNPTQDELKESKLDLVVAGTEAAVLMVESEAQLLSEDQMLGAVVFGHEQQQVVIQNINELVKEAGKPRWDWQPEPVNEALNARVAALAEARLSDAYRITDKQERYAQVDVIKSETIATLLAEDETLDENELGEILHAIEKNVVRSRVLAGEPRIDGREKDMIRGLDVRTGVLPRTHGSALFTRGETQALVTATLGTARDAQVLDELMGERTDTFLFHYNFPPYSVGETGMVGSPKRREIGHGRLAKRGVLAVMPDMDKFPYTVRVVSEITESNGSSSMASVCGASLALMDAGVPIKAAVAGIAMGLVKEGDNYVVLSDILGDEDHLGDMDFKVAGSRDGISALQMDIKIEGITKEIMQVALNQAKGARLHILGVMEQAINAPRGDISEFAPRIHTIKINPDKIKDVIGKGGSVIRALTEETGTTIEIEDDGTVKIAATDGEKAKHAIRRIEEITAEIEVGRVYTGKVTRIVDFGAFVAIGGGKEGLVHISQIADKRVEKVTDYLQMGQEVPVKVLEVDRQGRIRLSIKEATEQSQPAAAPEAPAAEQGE

T2: E. coli PNPase (E. coli, UniProt P05055 1-711)
T2 construct: polynucleotide phosphorylase (PNPase), E. coli; also called polynucleotide phosphorylase; full-length PNPase; source: E. coli BL21(DE3), purified (ammonium sulfate, Q, butyl-Sepharose, SEC)
T2 sequence (looked up): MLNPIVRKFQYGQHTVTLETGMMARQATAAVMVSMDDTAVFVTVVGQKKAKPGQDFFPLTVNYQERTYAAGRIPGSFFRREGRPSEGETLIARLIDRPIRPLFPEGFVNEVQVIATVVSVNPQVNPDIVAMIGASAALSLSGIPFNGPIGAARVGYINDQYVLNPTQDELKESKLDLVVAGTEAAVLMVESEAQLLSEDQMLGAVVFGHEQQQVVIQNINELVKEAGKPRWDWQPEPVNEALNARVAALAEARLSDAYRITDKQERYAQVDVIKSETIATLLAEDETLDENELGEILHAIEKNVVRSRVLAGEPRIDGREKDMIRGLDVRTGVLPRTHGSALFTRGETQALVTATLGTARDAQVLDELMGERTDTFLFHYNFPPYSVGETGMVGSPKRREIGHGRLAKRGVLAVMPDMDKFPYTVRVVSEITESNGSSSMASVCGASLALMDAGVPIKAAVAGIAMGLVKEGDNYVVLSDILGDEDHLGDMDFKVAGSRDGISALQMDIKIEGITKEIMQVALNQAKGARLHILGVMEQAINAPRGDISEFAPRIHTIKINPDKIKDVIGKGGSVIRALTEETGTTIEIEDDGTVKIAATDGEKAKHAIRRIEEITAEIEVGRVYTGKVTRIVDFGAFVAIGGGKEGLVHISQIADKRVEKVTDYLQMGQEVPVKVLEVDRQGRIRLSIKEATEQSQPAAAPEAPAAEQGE

T3: PNPase carrying a C-terminal Hisx6 tag (E. coli polynucleotide phosphorylase) (E. coli, UniProt P05055 1-711)
T3 construct: polynucleotide phosphorylase (PNPase), E. coli; Immobilised through the His tag on an NTA chip for SPR; also called PNPase C-His; PNPase with a 6xHisTag at the CTD; source: E. coli Evo21(DE3), purified (Ni-NTA, butyl-Sepharose HIC, Q, Superdex S200); not shown: His6, C-terminal, kept
T3 sequence (looked up): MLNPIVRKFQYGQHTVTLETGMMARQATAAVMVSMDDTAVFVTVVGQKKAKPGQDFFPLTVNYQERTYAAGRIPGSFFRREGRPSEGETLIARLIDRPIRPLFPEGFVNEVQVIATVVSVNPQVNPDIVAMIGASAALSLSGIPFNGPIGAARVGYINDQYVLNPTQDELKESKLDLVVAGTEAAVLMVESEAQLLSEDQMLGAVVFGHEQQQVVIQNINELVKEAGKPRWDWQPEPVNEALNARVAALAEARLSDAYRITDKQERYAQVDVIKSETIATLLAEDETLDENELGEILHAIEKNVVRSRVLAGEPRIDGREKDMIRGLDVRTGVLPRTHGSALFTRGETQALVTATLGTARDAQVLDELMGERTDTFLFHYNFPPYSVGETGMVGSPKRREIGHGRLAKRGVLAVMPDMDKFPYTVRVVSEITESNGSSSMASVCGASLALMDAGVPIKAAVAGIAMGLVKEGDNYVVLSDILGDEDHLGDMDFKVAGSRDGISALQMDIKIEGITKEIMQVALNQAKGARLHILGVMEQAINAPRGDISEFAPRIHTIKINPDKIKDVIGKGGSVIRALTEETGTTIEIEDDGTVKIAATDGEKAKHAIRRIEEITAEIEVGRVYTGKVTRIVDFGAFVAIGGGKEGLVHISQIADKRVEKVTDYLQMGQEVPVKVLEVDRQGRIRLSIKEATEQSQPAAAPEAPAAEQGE


Legend:
PNPase = target: T1, PNPase; format: binding, E. coli; conditions: for KD range in words / k a / k d: pH 7.2
Description: Briefly, at the N-terminal of the construct, there is an Hisx6 affinity tag that will be used for affinity purification. Following the Hisx6 tag there is an maltose-binding protein (MBP) tag with a TEV cleavage site to maintain solubility of the peptides. Following the MBP tag the gene encoding the peptide is inserted, and is then followed by intein, a self-cleavable tag, followed by a choline-binding domain, which can be used for an extra step of affinity purification. […] After expression, cells were harvested, resuspended in Lysis Buffer 2 (20 mM Tris–HCl, pH 8.0, 80 mM KCl, 300 mM NaCl, 20 mM Imidazole, 0.5 mM TCEP), and lysed with a cell disruptor (Emulsiflex, Avestin). […] After subsequent rounds of washing with Ni Equilibration Buffer supplemented with, respectively, 0.1% Triton-X, 1 M NaCl, and a final wash in Ni Equilibration Buffer, samples were eluted with Ni Elution Buffer (20 mM Tris–HCl, pH 8.0, 300 mM NaCl, 300 mM imidazole, 0.5 mM TCEP). Enriched fractions were then supplemented with 100 mM β-mercaptoethanol to catalyse intein self-cleavage overnight at room temperature. Treated samples were filtered and loaded on an amylose gravity flow column, equilibrated with Amy Equilibration Buffer (20 mM Tris–HCl, pH 8.0, 20 mM NaCl, 20 mM imidazole, 2 mM β-mercaptoethanol) and after washing, His-tagged TEV protease was applied to the resin and incubated at 4°C for 2 h.
PNPase carrying a C-terminal Hisx6 tag was expressed from pExp-cis-Ec_PNP-CHis vector in E. coli Evo21(DE3) cells, induced with 0.4 mM IPTG, at 18°C overnight. After expression, cells were harvested and resuspended in Lysis Buffer 2 (20 mM Tris–HCl, pH 8.0, 80 mM KCl, 300 mM NaCl, 20 mM imidazole, 0.5 mM TCEP), and lysed with a cell disruptor (Emulsiflex, Avestin). […] After subsequent rounds of washing with equilibration buffer supplemented with 0.1% Triton-X, or 1 M NaCl, the sample was eluted with Ni PNPCHis Elution Buffer (20 mM NaH2PO4, pH 8.0, 300 mM NaCl, 300 mM KCl, 5 mM MgCl2, 300 mM imidazole, pH 7.5, 10 mM β-mercaptoethanol). […] Fractions containing PNPase were run through a HiPrep™ 26/10 Desalting Column (GE Healthcare) and buffer exchanged to Q PNPCHis A (20 mM NaH2PO4, pH 8.0, 30 mM NaCl, 10% glycerol, 0.5 mM TCEP).
Interaction measurements were made using a Biacore T200 instrument (GE) at 25°C. PNPase with a 6xHisTag at the CTD was immobilized on a Series S Sensor Chip NTA (Cytiva) to provide a signal of 5 response units (RU). […] For the SPR analysis of the point mutants, binding to PNPase was measured at four different concentrations (0, 12.5, 25, and 50 nM). All concentrations were run in duplicates. The contact time was 60 s, while the dissociation time was 120 s, at a […] flow rate. […] The chip surface was regenerated with 350 mM EDTA in water, following manufacturer's instructions. Data were processed using the manufacturer’s BIAevaluation software.

E. coli PNPase = target: T2, E. coli PNPase; assay: SEC-MALS; Superdex 200 10/300 Increase, 100 µl at ~1 mg/ml, 25°C; buffer A (50 mM Tris pH 7.5, 100 mM NaCl, 100 mM KCl, 0.01% w/v b-DDM, 1 mM TCEP) or B (A without b-DDM) as Table S2 tells for each sample; the 1:1 ratio is one RNase E segment to one PNPase trimer (expected mass = trimer plus one segment); conditions: both partners purified
[1] = target: T3, PNPase carrying a C-terminal Hisx6 tag …; assay: SPR; PNPase with C-terminal His6 tag immobilised on Series S Sensor Chip NTA (5 RU); Biacore T200, 25°C; 20 mM HEPES pH 7.2, 150 mM NaCl, 5 mM MgCl2, 0.5 mM TCEP, 0.05% Tween 20; six peptide concentrations up to 9000 nM (up to 5000 nM for RNase E 985–1061); contact 60 s, dissociation 120 s; conditions: both partners purified

Molecule	KD range in words (PNPase)	k a (PNPase)	k d (PNPase) [s⁻¹]	other results
RNase E 985-1053: RNase E peptide lacking the terminal Pro-rich motif (left off: His6, N-terminal, cleaved | MBP, N-terminal, cleaved | intein, C-terminal, cleaved | choline-binding domain, C-terminal, cleaved, RNase E peptide lacking the terminal Pro-rich motif) VAAEVETVAAVEPEVTVEHNHATAPMTRAPAPEYVPEAPRHSDWQRPTFAFEGKGAAGGHTATHHASAA	high micromolar	2.94E + 4 1/M s	0.339	binding compared with the peptide including the region with Arg1056, in words (PNPase): significantly weaker binding
RNase E 583-1061, avi-tagged (domain or fragment, E. coli, UniProt P21513 583-1061, looked up, The construct is described nowhere in the methods) SGGEETKPTEQPAPKAEAKPERQQDRRKPRQNNRRDRNERRDTRSERTEGSDNREENRRNRRQAQQQTAETRESRQQAEVTEKARTADEQQAPRRERSRRRNDDKRQAQQEAKALNVEEQSVQETEQEERVRPVQPRRKQRQLNQKVRYEQSVAEEAVVAPVVEETVAAEPIVQEAPAPRTELVKVPLPVVAQTAPEQQEENNADNRDNGGMPRRSRRSPRHLRVSGQRRRRYRDERYPTQSPMPLTVACASPELASGKVWIRYPIVRPQDVQVEEQREQEEVHVQPMVTEVPVAAAIEPVVSAPVVEEVAGVVEAPVQVAEPQPEVVETTHPEVIAAAVTEQPQVITESDVAVAQEVAEQAEPVVEPQEETADIEEVVETAEVVVAEPEVVAQPAAPVVAEVAAEVETVAAVEPEVTVEHNHATAPMTRAPAPEYVPEAPRHSDWQRPTFAFEGKGAAGGHTATHHASAAPARPQPVE	–	–	–	stoichiometry N (E. coli PNPase): 1
RNase E 985-1061 (domain or fragment, E. coli, UniProt P21513 985-1061, looked up, source: E. coli Evo21(DE3), pMxe vector, purified (Ni-NTA, amylose, TEV, Q, Superdex 75); not shown: His6, N-terminal, cleaved; MBP, N-terminal, cleaved; intein, C-terminal, cleaved) VAAEVETVAAVEPEVTVEHNHATAPMTRAPAPEYVPEAPRHSDWQRPTFAFEGKGAAGGHTATHHASAAPARPQPVE	–	–	–	Kd [1]: 4.02 nM; koff [1]: 0.0158 s⁻¹; kon [1]: 3.93e+06 M⁻¹ s⁻¹
RNase E 985-1061: RNase E peptide that includes both β1 and β2 motifs (left off: His6, N-terminal, cleaved | MBP, N-terminal, cleaved | intein, C-terminal, cleaved | choline-binding domain, C-terminal, cleaved, RNase E peptide that includes both β1 and β2 motifs) VAAEVETVAAVEPEVTVEHNHATAPMTRAPAPEYVPEAPRHSDWQRPTFAFEGKGAAGGHTATHHASAAPARPQPVE	from the micromolar range to the low nanomolar range	3.93E + 6 1/M s	0.0158	cause of increase in affinity over 1039–1061, in words (PNPase): both acceleration of on-rate and decrease of off-rate
